Our source for the fold less toxin needed for saturation than in the Cry2Ab assay, Kd and Rt (binding site concentration) (pmol/mg BBMV protein) values is patent publication US20110088129A1.

The target of assay [1] is binding sites in brush border membrane vesicles (BBMV) from midguts of last instar Helicoverpa armigera larvae (Helicoverpa armigera). The assay can be described thus: direct saturation assay, labeled Cry1Ac on BBMV at the same concentration as for Cry2Ab.
In assay [2] the target is binding sites in brush border membrane vesicles (BBMV) from midguts of last instar Helicoverpa zea larvae (Helicoverpa zea). As to the kind of experiment: homologous competition, 125I-Cry1Ac on H. zea BBMV, LIGAND program.
In assay [3] the target is binding sites in brush border membrane vesicles (BBMV) from midguts of last instar Helicoverpa armigera larvae (Helicoverpa armigera). As to the kind of experiment: homologous competition, 125I-Cry1Ac on H. armigera BBMV, LIGAND program.

One may read the Kd as the equilibrium constant for the complex coming apart.

Take “Cry1Ac activated toxin (trypsin-activated Cry1Ac protoxin from B. thuringiensis strain HD73) (from UniProt P05068 29-623) (ligand)”: the fold less toxin needed for saturation than in the Cry2Ab assay in assay [1] came out at 4 fold. In assay [2], this substance yielded a dissociation constant Kd of 0.17 nM and a Rt (binding site concentration) (pmol/mg BBMV protein) of 10. For the same substance, in assay [3], the Kd came out at 0.08 nM and the Rt (binding site concentration) (pmol/mg BBMV protein) was 0.96.
